Measurements from PMC3921101.

Biological target: L-selectin (CD62L) on Jurkat T cells (human (endogenous in Jurkat)) (UniProt P14151)
Test: flow cytometry on cells

UniProt P14151, sequence (P14151 39-372): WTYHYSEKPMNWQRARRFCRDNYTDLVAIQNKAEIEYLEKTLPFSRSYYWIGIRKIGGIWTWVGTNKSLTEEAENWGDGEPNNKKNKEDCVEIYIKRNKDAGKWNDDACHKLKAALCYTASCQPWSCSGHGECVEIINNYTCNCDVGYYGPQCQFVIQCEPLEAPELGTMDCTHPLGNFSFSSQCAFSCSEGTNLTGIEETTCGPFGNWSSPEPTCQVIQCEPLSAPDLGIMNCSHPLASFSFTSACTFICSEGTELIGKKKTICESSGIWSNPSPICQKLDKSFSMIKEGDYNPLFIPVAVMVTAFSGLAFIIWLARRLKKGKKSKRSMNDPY

Row | Substance | fold binding (MFI) with DREG-55 mAb, relative to the DREG-200 mAb sample [fold]
1 | Human E-selectin-Fc chimera (from UniProt P16581 22-556) (Fc fusion) | 1.4
2 | Human PSGL-1-Fc chimera (from UniProt Q14242 42-320) (Fc fusion) | 1.6
